Patent US20050074826A1 (published 2005)

B1: human I-TAC (ligand, UniProt O14625 22-94, looked up)
chain: FPMFKRGRCLCIGPGVKAVKVADIEKASIMYPSNNCDKIEVIITLKENKGQRCLNPKSKQARLIIKKVERKNF
notes: also called hI-TAC; CXCL11
B2: mouse I-TAC (ligand, UniProt Q9JHH5 22-100, looked up)
chain: FLMFKQGRCLCIGPGMKAVKMAEIEKASVIYPSNGCDKVEVIVTMKAHKRQRCLDPRSKQARLIMQAIEKKNFLRRQNM
notes: also called mI-TAC; I-TAC (mouse protein)
B3: CCX-CKR2, mouse (on E13 fetal liver cells) (receptor, UniProt P56485 1-362, looked up)
chain: MDVHLFDYAEPGNYSDINWPCNSSDCIVVDTVQCPTMPNKNVLLYTLSFIYIFIFVIGMIANSVVVWVNIQAKTTGYDTHCYILNLAIADLWVVITIPVWVVSLVQHNQWPMGELTCKITHLIFSINLFGSIFFLACMSVDRYLSITYFTGTSSYKKKMVRRVVCILVWLLAFFVSLPDTYYLKTVTSASNNETYCRSFYPEHSIKEWLIGMELVSVILGFAVPFTIIAIFYFLLARAMSASGDQEKHSSRKIIFSYVVVFLVCWLPYHFVVLLDIFSILHYIPFTCQLENVLFTALHVTQCLSLVHCCVNPVLYSFINRNYRYELMKAFIFKYSAKTGLTKLIDASRVSETEYSALEQNTK
notes: whole, on cells; also called SDF-1 receptor on E13 fetal liver cells
B4: CXCR4, human (receptor, UniProt P61073 1-352, looked up)
chain: MEGISIYTSDNYTEEMGSGDYDSMKEPCFREENANFNKIFLPTIYSIIFLTGIVGNGLVILVMGYQKKLRSMTDKYRLHLSVADLLFVITLPFWAVDAVANWYFGNFLCKAVHVIYTVNLYSSVLILAFISLDRYLAIVHATNSQRPRKLLAEKVVYVGVWIPALLLTIPDFIFANVSEADDRYICDRFYPNDLWVVVFQFQHIMVGLILPGIVILSCYCIIISKLSHSKGHQKRKALKTTVILILAFFACWLPYYIGISIDSFILLEIIKQGCEFENTVHKWISITEALAFFHCCLNPILYAFLGAKFKTSAQHALTSVSRGSSLKILSKGKRGGHSSVSTESESSSFHSS
notes: whole, on cells; also called CXCR4 on CEM-NKr cells; leukocyte CXCR4
B5: MIG (ligand, UniProt Q07325 23-125, looked up)
chain: TPVVRKGRCSCISTNQGTIHLQSLKDLKQFAPSPSCEKIEIIATLKNGVQTCLNPDSADVKELIKKWEKQVSQKKKQKNGKKHQKKKVLKVRKSQRSRQKKTT
notes: also called monokine induced by gamma interferon; CXCR3 ligand MIG

Tests used:
[1] = target: T1, CCX-CKR2 (RDC1), human (human, UniProt P25106 1-362); test: homologous competition with 125I I-TAC on MCF-7 cells, medium alone
T1 construct: also called CCX-CR2; SDF1 receptor on MCF-7 cells
Protocol: (§1) Small molecules were included in some assays, where indicated. In these assays the compound was added to the plate to the indicated concentration followed by the addition of radiolabeled chemokine. All assays were then incubated for 3 hrs at 4° C. with gentle agitation. Following incubation in all binding assays, reactions were aspirated onto PEI-treated GF/B glass filters (Packard) using a cell harvester (Packard) and washed twice (25 mM HEPES, 500 mM NaCl, 1 mM CaCl₂, 5 mM MgCl₂, adjusted to pH 7.1). Scintillant (MicroScint 10, Packard) was added to the wells, and the filters were counted in a Packard Topcount scintillation counter. Data were analyzed and plotted using Prism (GraphPad Prism version 3.0a for Macintosh, GraphPad Software).

[2] = target: B3; test: competition with radiolabeled human SDF-1 on mouse E13 fetal liver cells
[3] = target: B4; test: dose response competition with 125I SDF-1α on CEM-NKr cells (CXCR4)
Protocol: Binding Analysis. […] Small molecules were included in some assays, where indicated. In these assays the compound was added to the plate to the indicated concentration followed by the addition of radiolabeled chemokine. All assays were then incubated for 3 hrs at 4° C. with gentle agitation. Following incubation in all binding assays, reactions were aspirated onto PEI-treated GF/B glass filters (Packard) using a cell harvester (Packard) and washed twice (25 mM HEPES, 500 mM NaCl, 1 mM CaCl₂, 5 mM MgCl₂, adjusted to pH 7.1). Scintillant (MicroScint 10, Packard) was added to the wells, and the filters were counted in a Packard Topcount scintillation counter.

[4] = target: T2, human SDF-1α (human, UniProt P48061-2 22-89); test: radioligand binding on mouse E13 fetal liver cells
T2 construct: also called hSDF-1α; SDF-1a

[5] = target: T2, human SDF-1α; test: DisplaceMax displacement of 125I SDF-1α on CEM-NKr cells (CXCR4)
[6] = target: T1, CCX-CKR2 (RDC1), human; test: competition with 125I I-TAC on MCF-7 cells
Protocol: as §1

T2 sequence (P48061 22-89 limits assumed): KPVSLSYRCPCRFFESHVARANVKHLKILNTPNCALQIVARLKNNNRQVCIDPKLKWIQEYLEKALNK
T1 sequence (P25106 whole entry): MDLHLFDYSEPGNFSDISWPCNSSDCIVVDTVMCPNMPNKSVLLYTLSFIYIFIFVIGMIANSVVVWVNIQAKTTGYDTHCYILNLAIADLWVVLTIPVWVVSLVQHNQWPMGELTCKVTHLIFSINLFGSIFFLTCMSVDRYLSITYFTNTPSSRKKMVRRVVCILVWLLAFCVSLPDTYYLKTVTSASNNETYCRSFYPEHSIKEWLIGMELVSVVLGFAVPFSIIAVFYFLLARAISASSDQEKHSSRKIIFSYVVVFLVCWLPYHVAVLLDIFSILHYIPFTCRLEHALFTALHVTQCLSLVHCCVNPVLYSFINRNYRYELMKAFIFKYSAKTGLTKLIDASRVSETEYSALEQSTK

B1
IC50 [1]: 1 nM | binding result [2]: binds | binding result [3]: no binding

B2
binding result [2]: binds

B3
binding result [4]: binds

B4
binding result [5]: binds

B5
binding result [6]: no binding
